Broadly, the Kd is the constant that tells how readily two partners part at equilibrium.

Sequences and labels used below:
B5: human T2-WRS (residues 94-471 of full-length tryptophanyl-tRNA synthetase) with C-terminal His6 tag (enzyme)
chain: SAKGIDYDKLIVRFGSSKIDKELINRIERATGQRPHHFLRRGIFFSHRDMNQVLDAYENKKPFYLYTGRGPSSEAMHVGHLIPFIFTKWLQDVFNVPLVIQMTDDEKYLWKDLTLDQAYSYAVENAKDIIACGFDINKTFIFSDLDYMGMSSGFYKNVVKIQKHVTFNQVKGIFGFTDSDCIGKISFPAIQAAPSFSNSFPQIFRDRTDIQCLIPCAIDQDPYFRMTRDVAPRIGYPKPALLHSTFFPALQGAQTKMSASDPNSSIFLTDTAKQIKTKVNKHAFSGGRDTIEEHRQFGGNCDVDVSFMYLTFFLEDDDKLEQIRKDYTSGAMLTGELKKALIEVLQPLIAEHQARRKEVTDEIVKEFMTPRKLSFDFQHHHHHH
notes: In monomer-dimer equilibrium; also called WT T2-WRS; WT T2-TrpRS
B6: VE-Cadherin extracellular domain EC1 (residues 48-155 of full-length VE-Cadherin), tag-free (other)
chain: DWIWNQMHIDEEKNTSLPHHVGKIKSSVSRKNAKYLLKGEYVGKVFRVDAETGDVFAIERLDRENISEYHLTAVIVDKDTGENLETPSSFTIKVHDVNDNWPVFTHRL
notes: Expressed as a GST fusion; also called VE-EC1; VE-Cadherin EC1 domain

Data set [1] deals with the molecule itself. As to the kind of experiment: disulfide crosslinking across the dimer interface, SDS-PAGE with and without DTT.
Experimental: All proteins were expressed and purified as mentioned above, except that no beta-mercaptoethanol was added. The purified proteins were diluted to 1 mg/ml in 25 mM HEPES (pH7.5, 150 mM NaCl) and incubated for 15 minutes at 4° C. with or without 10 mM DTT (dithiothreitol). Proteins samples (10 μl) were mixed with an equal amount of 2× loading buffer (without reducing reagent) and boiled for 1 min before loading onto a SDS-PAGE gel.
Data set [2] deals with the molecule itself. Kind of data set: gel chromatography with immunoblotting of fractions (YRS polyclonal antibody); dimer-monomer equilibrium. On the technique in general: In western blotting, separated proteins are transferred to a membrane and probed.
Experimental: (§1) Each protein sample (200 μl of 20 μM) was injected to Superdex 200 chromatography column (GE Healthcare, 10/300GL) in PBS containing 5 mM β-mercaptoethanol. The column was then calibrated by standard proteins. […] To determine the dissociation constant for dimer-monomer equilibrium, gel chromatography was carried out as a function of protein concentration.
Data set [3] concerns the molecule itself. As to the kind of experiment: gel chromatography; dimer-monomer equilibrium, reference Δ159-161 mini-YRS.
Experimental: as §1
For data set [4], the target named is B6. As to the kind of experiment: SPR (Biacore), T2-WRS variant amine-coupled to CM5 chip, EC1 domain in flow, 0.1 mM ZnCl2, kinetic titration fitting; monomer F260EY201EI278E T2-WRS on the chip, EC1 in flow. On the technique in general: Surface plasmon resonance follows binding to a sensor surface in real time, without labels.
Data set [5] concerns the molecule itself. As to the kind of experiment: size exclusion chromatography, percent dimer plotted against protein concentration; dimer-monomer dissociation constant.
Data set [6] concerns the molecule itself. As to the kind of experiment: size exclusion chromatography, 100 nM to 10 uM; percentage of dimers against concentration; dimer-monomer dissociation constant. A general note: Size exclusion chromatography separates by hydrodynamic size, large species first.
Data set [7] concerns the target B5. As to the kind of experiment: SPR (Biacore), T2-WRS amine-coupled to CM5 chip, EC1 domain in flow, 0.1 mM ZnCl2, kinetic titration fitting; WT T2-WRS on the chip, EC1 in flow.
Data set [8] deals with the molecule itself. As to the kind of experiment: gel filtration chromatography as a function of protein concentration; dimer-monomer equilibrium.
Experimental: as §1
Data set [9] deals with the molecule itself. Kind of data set: Superdex 200 gel filtration, 0.5-2 µM, self-association.
Experimental: E. coli Flavodoxin was inserted at the position of G310 on the peripheral region of the KRS dimer interface. The linker was kept short to reduce the potential structural flexibility. […] All proteins were loaded at a concentration range of 0.5-2 μM. […] BSA is bovine serum albumin.
The peak fractions were analyzed by SDS-PAGE and visualized by Coomassie blue staining.

B1: native human KRS (70-584) with T285C mutation (enzyme)
chain: not shown
modifications: disulfide between Cys 285 of the two subunits in the absence of DTT
notes: also called native KRST285C
For B1, the binding result in [1] is recorded as “binds”.

B2: wild-type (WT) human mini-YRS (N-terminal fragment of human tyrosyl-tRNA synthetase) (enzyme)
chain: MGDAPSPEEKLHLITRNLQEVLGEEKLKEILKERELKIYWGTATTGKPHVAYFVPMSKIADFLKAGCEVTILFADLHAYLDNMKAPWELLELRVSYYENVIKAMLESIGVPLEKLKFIKGTDYQLSKEYTLDVYRLSSVVTQHDSKKAGAEVVKQVEHPLLSGLLYPGLQALDEEYLKVDAQFGGIDQRKIFTFAEKYLPALGYSKRVHLMNPMVPGLTGSKMSSSEEESKIDLLDRKEDVKKKLKKAFCEPGNVENNGVLSFIKHVLFPLKSEFVILRDEKWGGNKTYTAYVDLEKDFAAEVVHPGDLKNSVEVALNKLLDPIREKFNTPALKKLASAAYPDPSKQKPMAKGPAKNSEPEEVI
notes: In monomer-dimer equilibrium; also called WT mini-YRS; mini-tyrosyl tRNA synthetase
B2 came in with a Kd in data set [2] of roughly 100 nM. Further, the “fold lower dimer-monomer dissociation constant than Δ159-161” value in data set [3] is roughly 1000 fold.

B3: Flavo-KRS (70-584) with T285C mutation (enzyme)
chain: SVDPNQYYKIRSQAIHQLKVNGEDPYPHKFHVDISLTDFIQKYSHLQPGDHLTDITLKVAGRIHAKRASGGKLIFYDLRGEGVKLQVMANSRNYKSEEEFIHINNKLRRGDIIGVQGNPGKTKKGELSIIPYEITLLSPCLHMLPHLHFGLKDKETRYRQRYLDLILNDFVRQKFIIRSKIITYIRSFLDELGFLEIETPMMNIIPGGAVAKPFICYHNELDMNLYMRIAPELYHKMLVVGNMGLFYGSSTCYTEMAAEKIRDIIGPELVTLHNLKDDSPKLMEQYDVLILGIPTWDFGEIQEDWEAVWDQLDDLNLEGKIVALYGLGDQLGYGEWFLDALGMLHDKLSTKGVKFVGYWPTEGYEFTSPKPVIADGQLFVGLALDETNQYDLSDERIQSWCEQILNEMARVYEIGRQFRNEGIDLTHNPEFTTCEFYMAYADYHDLMEITEKMVSGMVKHITGSYKVTYHPDGPEGQAYDVDFTPPFRRINMVEELEKALGMKLPETNLFETEETRKILDDICVAKAVECPPPRTTARLLDKLVGEFLEVTCINPTFICDHPQIMSPLAKWHRSKEGLTERFELFVMKKEICNAYTELNDPMRQRQLFEEQAKAKAAGDDEAMFIDENFCTALEYGLPPTAGWGMGIDRVAMFLTDSNNIKEVLLFPAMKPEDKKENVATAGHHHHHH
notes: also called T285C Flavo-KRS
For B3, the binding result in [1] is on record as “no binding”.

B4: F260EY201EI278E T2-WRS variant (stable monomer) (enzyme)
chain: SAKGIDYDKLIVRFGSSKIDKELINRIERATGQRPHHFLRRGIFFSHRDMNQVLDAYENKKPFYLYTGRGPSSEAMHVGHLIPFIFTKWLQDVFNVPLVIQMTDDEKELWKDLTLDQAYSYAVENAKDIIACGFDINKTFIFSDLDYMGMSSGFYKNVVKIQKHVTENQVKGIFGFTDSDCIGKESFPAIQAAPSFSNSFPQIFRDRTDIQCLIPCAIDQDPYFRMTRDVAPRIGYPKPALLHSTFFPALQGAQTKMSASDPNSSIFLTDTAKQIKTKVNKHAFSGGRDTIEEHRQFGGNCDVDVSFMYLTFFLEDDDKLEQIRKDYTSGAMLTGELKKALIEVLQPLIAEHQARRKEVTDEIVKEFMTPRKLSFDFQHHHHHH
notes: Residue numbers of the mutations are those of full-length WRS; also called monomer T2-WRS; T2-WRS (F260EY201EI278E)
Molecule B4 registered a Kd in data set [4] of 1340 nM. Regarding B5, the Kd in [5] was 472 nM; in [6], 437 nM. For the molecule B6, binding in data set [7] was characterised by a dissociation constant (Kd) of 1520 nM.

B7: non-associating monomeric Δ159-161 variant of mini-YRS (enzyme)
chain: MGDAPSPEEKLHLITRNLQEVLGEEKLKEILKERELKIYWGTATTGKPHVAYFVPMSKIADFLKAGCEVTILFADLHAYLDNMKAPWELLELRVSYYENVIKAMLESIGVPLEKLKFIKGTDYQLSKEYTLDVYRLSSVVTQHDSKKAGAEVVKQVEHSGLLYPGLQALDEEYLKVDAQFGGIDQRKIFTFAEKYLPALGYSKRVHLMNPMVPGLTGSKMSSSEEESKIDLLDRKEDVKKKLKKAFCEPGNVENNGVLSFIKHVLFPLKSEFVILRDEKWGGNKTYTAYVDLEKDFAAEVVHPGDLKNSVEVALNKLLDPIREKFNTPALKKLASAAYPDPSKQKPMAKGPAKNSEPEEVI
notes: also called the monomer
Consider B7, for which the dissociation constant (Kd) in data set [8] is roughly 100000 nM.

B8: truncated human KRS (residues 70-584 of full-length lysyl-tRNA synthetase) with C-terminal 6xHis tag (enzyme)
chain: not shown
notes: Homodimer (alpha2) in solution; also called native human KRS (70-584); native KRS
As for B8, the binding result in data set [9] is “binds”.
